Test results: article PMC5710141 (Genes & Development, 2017)

Legend:
[1] = target: the molecule itself; test: AUC
[2] = target: Mif2 DHBD (Saccharomyces cerevisiae (budding yeast), UniProt P35201 256-365); test: analytical ultracentrifugation
[3] = target: Mif2c (Mif2 core) dimer (Saccharomyces cerevisiae (budding yeast), UniProt P35201 256-530); test: analytical ultracentrifugation

B1: Mif2 core (Mif2c) dimer, Mif2 residues 256-530 (domain or fragment, budding yeast, UniProt P35201 256-530, looked up)
chain: NTNDNEDDYIRRQASDVVRTDSIIDRNGLRKSTRVKVAPLQYWRNEKIVYKRKSNKPVLDIDKIVTYDESEDEEEILAAQRRKKQKKKPTPTRPYNYVPTGRPRGRPKKDPNAKENLIPEDPNEDIIERIESGGIENGEWLKHGILEANVKISDTKEETKDEIIAFAPNLSQTEQVKDTKDENFALEIMFDKHKEYFASGILKLPAISGQKKLSNSFRTYITFHVIQGIVEVTVCKNKFLSVKGSTFQIPAFNEYAIANRGNDEAKMFFVQVTVS
With B1 the “stoichiometry N” value [1] was 2.

B2: 20-bp AT-rich dsDNA (dsDNA)
DNA 1: AAAGTAAAAAATAAAAAGTA
DNA 2: TACTTTTTATTTTTTACTTT
B2: binds [2].

B3: 40-bp AT-rich dsDNA (dsDNA)
DNA 1: AAAGTAAAAAATAAAAAGTAGTTTATTTTTAAAAAATAAA
DNA 2: TTTATTTTTTAAAAATAAACTACTTTTTATTTTTTACTTT
B3: binds [3].
